Laboratory results: US20240116985A1 (published 2024)
Starred links: 1 amine or outer side, 2 acyl side, 3 side chain; linkers in the order of their positions; H or OH if unused. Positions of bridges follow the written chain, without caps; N, C: chain ends. Non-standard residues stand in square brackets, D forms with d. Primed or numbered codes have the meaning given here. PyrS2(3) = (S)-3-amino-1-((pent-4-en-1-yloxy)carbonyl)pyrrolidine-3-carboxylic acid, stapling residue, C=CCCCOC(=O)N1CC[C@@](N[*:1])(C(=O)[*:2])C1; PyrS2″ = (S)-3-amino-1-((pent-4-en-1-yloxy)carbonyl)pyrrolidine-3-carboxylic acid (stapling residue), C=CCCCOC(=O)N1CC[C@@](N[*:1])(C(=O)[*:2])C1; TfeGA = (S)-2-amino-3-((carboxymethyl)(2,2,2-trifluoroethyl)amino)propanoic acid, O=C([C@H](CN(CC(=O)[*:3])CC(F)(F)F)N[*:1])[*:2]; B5(3) = 2,2-bis(4-pentenyl)glycine (stitching residue), C=CCCCC(CCCC=C)(N[*:1])C(=O)[*:2]; B5″ = 2,2-bis(4-pentenyl)glycine, stitching residue, C=CCCCC(CCCC=C)(N[*:1])C(=O)[*:2]; Bta = N[C@@H](Cc1csc2ccccc12)C(=O)O; αAllylPro = C=CC[C@@]1(C(=O)O)CCCN1; tBuAla = CC(C)(C)C[C@H](N)C(=O)O; 3Thi = N[C@@H](Cc1ccsc1)C(=O)O

T1: beta-catenin (Homo sapiens (Human), UniProt P35222 1-781)
T1 sequence: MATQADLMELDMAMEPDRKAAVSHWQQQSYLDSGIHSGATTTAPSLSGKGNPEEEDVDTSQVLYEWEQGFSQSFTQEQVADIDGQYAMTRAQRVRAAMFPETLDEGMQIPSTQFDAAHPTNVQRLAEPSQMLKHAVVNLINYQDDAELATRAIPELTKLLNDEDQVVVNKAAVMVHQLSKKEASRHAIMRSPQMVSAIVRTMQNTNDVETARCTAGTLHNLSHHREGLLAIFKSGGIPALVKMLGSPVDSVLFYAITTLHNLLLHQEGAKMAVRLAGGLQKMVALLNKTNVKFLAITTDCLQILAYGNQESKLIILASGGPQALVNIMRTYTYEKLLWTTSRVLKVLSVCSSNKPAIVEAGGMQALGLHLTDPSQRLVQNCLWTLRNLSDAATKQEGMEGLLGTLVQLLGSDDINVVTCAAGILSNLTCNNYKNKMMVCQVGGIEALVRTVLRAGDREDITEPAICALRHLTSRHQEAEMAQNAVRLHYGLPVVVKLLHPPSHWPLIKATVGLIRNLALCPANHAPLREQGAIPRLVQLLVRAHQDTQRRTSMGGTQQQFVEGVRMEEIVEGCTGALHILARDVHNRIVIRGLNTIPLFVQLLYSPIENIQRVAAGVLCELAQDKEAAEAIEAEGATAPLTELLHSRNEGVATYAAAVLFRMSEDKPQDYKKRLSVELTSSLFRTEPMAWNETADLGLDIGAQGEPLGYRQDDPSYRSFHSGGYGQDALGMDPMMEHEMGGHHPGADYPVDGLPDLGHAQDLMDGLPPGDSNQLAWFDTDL


target: T1, beta-catenin; assay: cell-based or functional assay

| DLD1 TCF c2 BrightGlo % Inhibition, 0.625 uM, replicate 1 | DLD1 TCF c2 BrightGlo % Inhibition, 0.625 uM, replicate 2 | DLD1 TCF c2 BrightGlo % Inhibition, 0.625 uM, replicate 3 | DLD1 TCF c2 BrightGlo % Inhibition, 1.25 uM, replicate 1 | DLD1 TCF c2 BrightGlo % Inhibition, 1.25 uM, replicate 2 | DLD1 TCF c2 BrightGlo % Inhibition, 1.25 uM, replicate 3 | DLD1 TCF c2 BrightGlo % Inhibition, 2.5 uM, replicate 1 | DLD1 TCF c2 BrightGlo % Inhibition, 2.5 uM, replicate 2 | DLD1 TCF c2 BrightGlo % Inhibition, 2.5 uM, replicate 3 | DLD1 TCF c2 BrightGlo % Inhibition, 5 uM, replicate 1 | Binder |
| --- | --- | --- | --- | --- | --- | --- | --- | --- | --- | --- |
| 11% | 10.7% | 15.5% | 5.7% | 22.3% | 21.2% | 13.3% | 28.8% | 33.4% | 32% | Ac-[αAllylPro]D[tBuAla][B5(3)]D[TfeGA]AAFF[PyrS2″]F[Bta]Q-NH2 (staple 1-4, 4-11) [I-988] |
| 14.5% | 18.6% | 9.3% | 12.9% | 16.9% | 5.5% | 12.9% | 17.4% | 11.9% | 28.2% | Ac-[αAllylPro]D[tBuAla][B5″]D[TfeGA]AAFN[PyrS2(3)][3Thi][Bta]Q-NH2 (staple 1-4, 4-11) [I-762] |
| -1.5% | 9.3% | 4.5% | -7% | -2.8% | 6.1% | -8% | -7.6% | -5% | -6.7% | Ac-[αAllylPro]D[tBuAla][B5(3)][3Thi][TfeGA]AAFN[PyrS2″]D[Bta]Q-NH2 (staple 1-4, 4-11) [I-1001] |

same assay, conditions: not given

| DLD1 TCF c2 BrightGlo % Inhibition, 5 uM, replicate 2 | DLD1 TCF c2 BrightGlo % Inhibition, 5 uM, replicate 3 | DLD1 TCF c2 BrightGlo % Inhibition, 10 uM, replicate 1 | DLD1 TCF c2 BrightGlo % Inhibition, 10 uM, replicate 2 | DLD1 TCF c2 BrightGlo % Inhibition, 10 uM, replicate 3 | DLD1 TCF c2 BrightGlo % Inhibition, 20 uM, replicate 1 | DLD1 TCF c2 BrightGlo % Inhibition, 20 uM, replicate 2 | DLD1 TCF c2 BrightGlo % Inhibition, 20 uM, replicate 3 | Binder |
| --- | --- | --- | --- | --- | --- | --- | --- | --- |
| 57.8% | 62% | 61.5% | 72% | 76.2% | 78.1% | 81.3% | 81.9% | Ac-[αAllylPro]D[tBuAla][B5(3)]D[TfeGA]AAFF[PyrS2″]F[Bta]Q-NH2 (staple 1-4, 4-11) [I-988] |
| 45.2% | 44.6% | 56.8% | 70.2% | 65.6% | 75.7% | 81.9% | 78.7% | Ac-[αAllylPro]D[tBuAla][B5″]D[TfeGA]AAFN[PyrS2(3)][3Thi][Bta]Q-NH2 (staple 1-4, 4-11) [I-762] |
| -6.7% | -0.7% | -3.6% | -4.8% | -7.4% | -1.2% | 7.5% | 3.5% | Ac-[αAllylPro]D[tBuAla][B5(3)][3Thi][TfeGA]AAFN[PyrS2″]D[Bta]Q-NH2 (staple 1-4, 4-11) [I-1001] |
